# Measured values: patent US20140223606, “COMPOSITIONS AND METHODS COMPRISING SEQUENCES HAVING MEGANUCLEASE ACTIVITY” (PIONEER HI BRED INTERNATIONAL INC, published 2014)
# What was measured:
# Settings in all cases: tags: NLS, 6xHis
# ZM6.3(G4) = target: T1, ZM6.3(G4) (artificial); assay: cell_activity; yeast 37 C; 28 C: 2
# T1 chain: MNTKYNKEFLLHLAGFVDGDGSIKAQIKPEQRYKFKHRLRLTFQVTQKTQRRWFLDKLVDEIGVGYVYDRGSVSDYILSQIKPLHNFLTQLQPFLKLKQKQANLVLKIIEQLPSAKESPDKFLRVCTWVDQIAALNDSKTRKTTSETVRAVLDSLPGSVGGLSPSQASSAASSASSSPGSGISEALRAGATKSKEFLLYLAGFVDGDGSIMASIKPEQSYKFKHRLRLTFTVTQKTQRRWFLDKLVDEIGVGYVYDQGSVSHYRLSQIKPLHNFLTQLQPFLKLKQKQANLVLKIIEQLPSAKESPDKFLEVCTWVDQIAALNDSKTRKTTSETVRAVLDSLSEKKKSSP
# Experimental: (§1) A 3 mL culture of selective media (MP Biomedical) was inoculated with a single colony of the yeast screening strain and grown at 30° C. overnight. On the following day, a 50 ml YPD culture (MP Biomedical) was started with 2 ml of the overnight culture and grown at 30° C. overnight. On the following day, the cells were harvested by centrifugation at 4000 rpm. The cells were resuspended in 100 ml ice cold water and centrifuged again. The cells were then washed in 1.2 M sorbitol, followed by treatment with 2 ml of 10 mM Tris pH 8.0, 1 mM EDTA, 100 mM Lithium acetate, 10 mM DTT, 0.6M sorbitol for 30 minutes at 30° C. with shaking. The cells were recovered by centrifugation, washed in 40 ml 1.2M sorbitol and finally resuspended in 250 microliters of 1.2M sorbitol. 50 microliter aliquots were transferred to test tubes on ice. Up to 5 microliters of DNA (100-500 nanograms) were added. The suspension was transferred to a 0.2 cm electroporation cuvette, on ice. Electroporation was performed with a pulse charge at 1.5 kV, 200 ohms, 25 microF (pulse time of 5 milliseconds). 1 mL YPD media (MP Biomedical) was added and the cells were allowed to recover at 30° C. for 1-2 hr. The cells were centrifuged, resuspended in 100 uL 1M sorbitol and plated on selective media lacking leucine and containing 2% galactose. The resulting yeast colonies were incubated at various temperatures ranging from 22 to 37 degrees Celsius for 7-10 days. I-CreI and meganucleases derived from it have maximal activity at or above 37 degrees Celsius. Screening was performed at a range of temperatures from 22 to 37 degrees in order to observe increases in activity at lower temperatures which are relevant to certain biological systems (eg. plant cells, plant cell cultures, etc). At that time the red/white sectoring phenotype, indicative of meganuclease activity was observed. Colonies with increased white sectoring over the parental meganuclease (indicating colonies expressing a meganuclease with increased meganuclease activity), also referred to as “hits” and sometimes completely white, were isolated for further analysis.
# (§2) A total of 15 Zm6.3 variants with increased activity were confirmed in the yeast system (as described in Example 6). Increased activity was observed across a range of temperatures: 28 degrees Celsius, 30 degrees Celsius and 37 degrees Celsius, as shown in Table 15.
# ZM6.3(H3) = target: T2, ZM6.3(H3) (artificial); assay: cell_activity; yeast 37 C; 28 C: 2
# T2 chain: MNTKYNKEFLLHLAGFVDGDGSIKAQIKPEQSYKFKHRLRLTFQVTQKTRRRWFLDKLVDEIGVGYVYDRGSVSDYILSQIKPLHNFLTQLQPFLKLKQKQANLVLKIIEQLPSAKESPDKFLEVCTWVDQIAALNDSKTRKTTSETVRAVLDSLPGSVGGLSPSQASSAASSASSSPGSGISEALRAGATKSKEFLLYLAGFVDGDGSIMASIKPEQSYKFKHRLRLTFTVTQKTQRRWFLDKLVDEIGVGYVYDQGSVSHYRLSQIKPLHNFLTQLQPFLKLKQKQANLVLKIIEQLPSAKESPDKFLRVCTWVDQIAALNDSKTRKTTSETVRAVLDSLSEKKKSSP
# Experimental: as §1, §2
# ZM6.3(H2) = target: T3, ZM6.3(H2) (artificial); assay: cell_activity; yeast 37 C; 28 C: 2
# T3 chain: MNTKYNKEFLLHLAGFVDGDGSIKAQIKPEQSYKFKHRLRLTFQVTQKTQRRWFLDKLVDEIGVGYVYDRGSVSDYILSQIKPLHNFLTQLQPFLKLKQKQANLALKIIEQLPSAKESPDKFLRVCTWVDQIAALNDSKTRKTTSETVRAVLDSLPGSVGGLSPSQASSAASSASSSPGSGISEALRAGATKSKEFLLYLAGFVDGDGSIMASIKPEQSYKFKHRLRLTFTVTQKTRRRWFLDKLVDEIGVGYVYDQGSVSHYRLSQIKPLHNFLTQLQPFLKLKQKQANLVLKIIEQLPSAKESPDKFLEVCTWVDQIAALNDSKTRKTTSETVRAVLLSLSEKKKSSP
# Experimental: as §1, §2
# ZM6.3(G3) = target: T4, ZM6.3(G3) (artificial); assay: cell_activity; yeast 37 C; 28 C: 2
# T4 chain: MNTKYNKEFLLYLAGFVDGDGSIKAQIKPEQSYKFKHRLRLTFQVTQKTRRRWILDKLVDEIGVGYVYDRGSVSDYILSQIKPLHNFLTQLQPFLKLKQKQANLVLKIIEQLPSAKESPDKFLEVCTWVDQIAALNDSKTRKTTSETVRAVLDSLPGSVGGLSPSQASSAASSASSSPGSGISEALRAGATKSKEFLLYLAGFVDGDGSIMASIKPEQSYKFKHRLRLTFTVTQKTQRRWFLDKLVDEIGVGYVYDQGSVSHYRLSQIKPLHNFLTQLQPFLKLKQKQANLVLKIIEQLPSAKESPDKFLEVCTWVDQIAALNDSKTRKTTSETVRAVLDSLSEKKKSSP
# Experimental: as §1, §2
# ZM6.22v2(I4) = target: T5, ZM6.22v2(I4) (artificial); assay: cell_activity; yeast 37 C; 30 C: 0
# T5 chain: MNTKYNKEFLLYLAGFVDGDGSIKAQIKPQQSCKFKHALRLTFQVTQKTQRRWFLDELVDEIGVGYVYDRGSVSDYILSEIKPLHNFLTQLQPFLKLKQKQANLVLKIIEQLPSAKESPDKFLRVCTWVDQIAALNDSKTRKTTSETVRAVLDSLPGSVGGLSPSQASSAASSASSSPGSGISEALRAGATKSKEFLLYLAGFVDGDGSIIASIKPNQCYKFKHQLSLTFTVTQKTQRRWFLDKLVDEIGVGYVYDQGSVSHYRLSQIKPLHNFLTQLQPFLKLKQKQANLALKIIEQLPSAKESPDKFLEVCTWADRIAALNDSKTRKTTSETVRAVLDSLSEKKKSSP
# Experimental: as §1
# A total of 13 ZM6.22v2 variants with increased activity were confirmed in the yeast system (as described in Example 6). Increased activity was observed across a range of temperatures: 28 degrees Celsius, 30 degrees Celsius and 37 degrees Celsius, as shown in Table 16.
Binder,activity (ZM6.3(G4)) [score 0-4],activity (ZM6.3(H3)) [score 0-4],activity (ZM6.3(H2)) [score 0-4],activity (ZM6.3(G3)) [score 0-4],activity (ZM6.22v2(I4)) [score 0-4]
ZM6.3 recognition site (dsDNA) DNA 1: CAGGCTCTCGTAAATGCGCCTG DNA 2: CAGGCGCATTTACGAGAGCCTG,4,4,4,4,–
ZM6.22v2 recognition site (dsDNA) DNA 1: ATTGCTCTCTCACATACTTTTA DNA 2: TAAAAGTATGTGAGAGAGCAAT,–,–,–,–,3
